Laboratory results taken from patent US20260242735A1 (UNIVERSIT T BASEL, published 2026).
Each block holds one binder with its values, some of them ahead of it.

Experiments:
Test in all cases: flow cytometry, HEK293-T, IgG;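 further: CD33 point mutants transiently expressed, antibody binding measured by fluorescence in duplicate, background subtracted and scaled to binding on wild-type CD33 as 100%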
human CD33 V25L = human CD33 V25L (human, UniProt P20138 18-364)
human CD33 N20V = human CD33 N20V (human, UniProt P20138 18-364)
human CD33 N20T = human CD33 N20T (human, UniProt P20138 18-364)
human CD33 W22P = human CD33 W22P (human, UniProt P20138 18-364)
Sequence of human CD33 W22P (P20138 18-364 W22P limits assumed): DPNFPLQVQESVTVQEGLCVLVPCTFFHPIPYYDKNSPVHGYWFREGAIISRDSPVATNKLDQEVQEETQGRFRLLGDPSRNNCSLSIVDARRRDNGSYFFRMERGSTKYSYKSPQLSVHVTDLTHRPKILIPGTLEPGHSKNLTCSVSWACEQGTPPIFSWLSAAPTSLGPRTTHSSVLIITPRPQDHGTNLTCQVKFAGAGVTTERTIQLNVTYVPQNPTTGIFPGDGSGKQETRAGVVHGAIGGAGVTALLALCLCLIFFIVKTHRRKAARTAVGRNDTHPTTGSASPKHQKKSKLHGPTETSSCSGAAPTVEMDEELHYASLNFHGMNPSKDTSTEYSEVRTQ

human CD33 N20E = human CD33 N20E (human, UniProt P20138 18-364)
human CD33 N20K = human CD33 N20K (human, UniProt P20138 18-364)
human CD33 Q24H = human CD33 Q24H (human, UniProt P20138 18-364)
Sequence of human CD33 Q24H (P20138 18-364 Q24H limits assumed): as the sequence (P20138 18-364 W22P limits assumed) above, with P5W, Q7H counted along it

human CD33 V25M = human CD33 V25M (human, UniProt P20138 18-364)
human CD33 W22E = human CD33 W22E (human, UniProt P20138 18-364)
human CD33 F21S = human CD33 F21S (human, UniProt P20138 18-364)
human CD33 W22S = human CD33 W22S (human, UniProt P20138 18-364)
human CD33 N20Y = human CD33 N20Y (human, UniProt P20138 18-364)
Sequence of human CD33 N20Y (P20138 18-364 N20Y limits assumed): as the sequence (P20138 18-364 W22P limits assumed) above, with N3Y, P5W counted along it

human CD33 N20G = human CD33 N20G (human, UniProt P20138 18-364)
Sequence of human CD33 N20G (P20138 18-364 N20G limits assumed): as the sequence (P20138 18-364 W22P limits assumed) above, with N3G, P5W counted along it

human CD33 Q24I = human CD33 Q24I (human, UniProt P20138 18-364)
Sequence of human CD33 Q24I (P20138 18-364 Q24I limits assumed): as the sequence (P20138 18-364 W22P limits assumed) above, with P5W, Q7I counted along it

human CD33 Q24E = human CD33 Q24E (human, UniProt P20138 18-364)
human CD33 W22T = human CD33 W22T (human, UniProt P20138 18-364)
Sequence of human CD33 W22T (P20138 18-364 W22T limits assumed): as the sequence (P20138 18-364 W22P limits assumed) above, with P5T counted along it

human CD33 W22L = human CD33 W22L (human, UniProt P20138 18-364)
Sequence of human CD33 W22L (P20138 18-364 W22L limits assumed): as the sequence (P20138 18-364 W22P limits assumed) above, with P5L counted along it

human CD33 L23M = human CD33 L23M (human, UniProt P20138 18-364)
Sequence of human CD33 L23M (P20138 18-364 L23M limits assumed): as the sequence (P20138 18-364 W22P limits assumed) above, with P5W, L6M counted along it

human CD33 N20L = human CD33 N20L (human, UniProt P20138 18-364)
human CD33 P19W = human CD33 P19W (human, UniProt P20138 18-364)
human CD33 Q24L = human CD33 Q24L (human, UniProt P20138 18-364)
human CD33 W22Y = human CD33 W22Y (human, UniProt P20138 18-364)
human CD33 V25S = human CD33 V25S (human, UniProt P20138 18-364)
human CD33 N20W = human CD33 N20W (human, UniProt P20138 18-364)
Sequence of human CD33 N20W (P20138 18-364 N20W limits assumed): as the sequence (P20138 18-364 W22P limits assumed) above, with N3W, P5W counted along it

human CD33 N20P = human CD33 N20P (human, UniProt P20138 18-364)
human CD33 Q24S = human CD33 Q24S (human, UniProt P20138 18-364)
human CD33 F21L = human CD33 F21L (human, UniProt P20138 18-364)
human CD33 Q24V = human CD33 Q24V (human, UniProt P20138 18-364)
Sequence of human CD33 Q24V (P20138 18-364 Q24V limits assumed): as the sequence (P20138 18-364 W22P limits assumed) above, with P5W, Q7V counted along it

human CD33 D18R = human CD33 D18R (human, UniProt P20138 19-364)
Sequence of human CD33 D18R (P20138 18-364 D18R limits assumed): as the sequence (P20138 18-364 W22P limits assumed) above, with D1R, P5W counted along it

human CD33 N20S = human CD33 N20S (human, UniProt P20138 18-364)
human CD33 V25I = human CD33 V25I (human, UniProt P20138 18-364)
human CD33 P19K = human CD33 P19K (human, UniProt P20138 18-364)
human CD33 Q24N = human CD33 Q24N (human, UniProt P20138 18-364)
Sequence of human CD33 Q24N (P20138 18-364 Q24N limits assumed): as the sequence (P20138 18-364 W22P limits assumed) above, with P5W, Q7N counted along it

human CD33 Q24T = human CD33 Q24T (human, UniProt P20138 18-364)
human CD33 F21V = human CD33 F21V (human, UniProt P20138 18-364)
Sequence of human CD33 F21V (P20138 18-364 F21V limits assumed): as the sequence (P20138 18-364 W22P limits assumed) above, with F4V, P5W counted along it

human CD33 N20Q = human CD33 N20Q (human, UniProt P20138 18-364)
human CD33 D18N = human CD33 D18N (human, UniProt P20138 19-364)
Sequence of human CD33 D18N (P20138 18-364 D18N limits assumed): as the sequence (P20138 18-364 W22P limits assumed) above, with D1N, P5W counted along it

Mean % WT Binding (human CD33 V25L): 104 % WT binding
Mean % WT Binding (human CD33 N20V): 96.9 % WT binding
Mean % WT Binding (human CD33 N20T): 106 % WT binding
Mean % WT Binding (human CD33 W22P): 1.8 % WT binding
Mean % WT Binding (human CD33 N20E): 108 % WT binding
Mean % WT Binding (human CD33 N20K): 91.8 % WT binding
Mean % WT Binding (human CD33 Q24H): 100 % WT binding
Mean % WT Binding (human CD33 V25M): 68.6 % WT binding
Mean % WT Binding (human CD33 W22E): 1.7 % WT binding
Mean % WT Binding (human CD33 F21S): 115 % WT binding
Mean % WT Binding (human CD33 W22S): 6.7 % WT binding
Mean % WT Binding (human CD33 N20Y): 28 % WT binding
Mean % WT Binding (human CD33 N20G): 101 % WT binding
Mean % WT Binding (human CD33 Q24I): 89.9 % WT binding
Mean % WT Binding (human CD33 Q24E): 89.7 % WT binding
Mean % WT Binding (human CD33 W22T): 2.6 % WT binding
Mean % WT Binding (human CD33 W22L): 1.1 % WT binding
Mean % WT Binding (human CD33 L23M): 100 % WT binding
Mean % WT Binding (human CD33 N20L): 88.2 % WT binding
Mean % WT Binding (human CD33 P19W): 75.5 % WT binding
Mean % WT Binding (human CD33 Q24L): 98.9 % WT binding
Mean % WT Binding (human CD33 W22Y): 4.1 % WT binding
Mean % WT Binding (human CD33 V25S): 94.7 % WT binding
Mean % WT Binding (human CD33 N20W): 50.3 % WT binding
Mean % WT Binding (human CD33 N20P): 97.2 % WT binding
Mean % WT Binding (human CD33 Q24S): 80.7 % WT binding
Mean % WT Binding (human CD33 F21L): 118 % WT binding
Mean % WT Binding (human CD33 Q24V): 94.3 % WT binding
Mean % WT Binding (human CD33 D18R): 68.3 % WT binding
Mean % WT Binding (human CD33 N20S): 101 % WT binding
Mean % WT Binding (human CD33 V25I): 106 % WT binding
Mean % WT Binding (human CD33 P19K): 85.4 % WT binding
Mean % WT Binding (human CD33 Q24N): 95.4 % WT binding
Mean % WT Binding (human CD33 Q24T): 97.7 % WT binding
Mean % WT Binding (human CD33 F21V): 118 % WT binding
Mean % WT Binding (human CD33 N20Q): 97.2 % WT binding
Mean % WT Binding (human CD33 D18N): 32.2 % WT binding
B1: Refmab #6 (antibody, human IgG1, V domains shown)
VH: QVQLQQPGAEVVKPGASVKMSCKASGYTFTSYYIHWIKQTPGQGLEWVGVIYPGNDDISYNQKFQGKATLTADKSSTTAYMQLSSLTSEDSAVYYCAREVRLRYFDVWGQGTTVTVSS
VL: EIVLTQSPGSLAVSPGERVTMSCKSSQSVFFSSSQKNYLAWYQQIPGQSPRLLIYWASTRESGVPDRFTGSGSGTDFTLTISSVQPEDLAIYYCHQYLSSRTFGQGTKLEIK
notes: tested in IgG format

Mean % WT Binding (human CD33 V25L): 94.9 % WT binding
Mean % WT Binding (human CD33 N20V): 108 % WT binding
Mean % WT Binding (human CD33 N20T): 107 % WT binding
Mean % WT Binding (human CD33 W22P): 110 % WT binding
Mean % WT Binding (human CD33 N20E): 109 % WT binding
Mean % WT Binding (human CD33 N20K): 105 % WT binding
Mean % WT Binding (human CD33 Q24H): 104 % WT binding
Mean % WT Binding (human CD33 V25M): 87.6 % WT binding
Mean % WT Binding (human CD33 W22E): 111 % WT binding
Mean % WT Binding (human CD33 F21S): 112 % WT binding
Mean % WT Binding (human CD33 W22S): 89.7 % WT binding
Mean % WT Binding (human CD33 N20Y): 57.7 % WT binding
Mean % WT Binding (human CD33 N20G): 96.9 % WT binding
Mean % WT Binding (human CD33 Q24I): 94.6 % WT binding
Mean % WT Binding (human CD33 Q24E): 95.6 % WT binding
Mean % WT Binding (human CD33 W22T): 108 % WT binding
Mean % WT Binding (human CD33 W22L): 96 % WT binding
Mean % WT Binding (human CD33 L23M): 90.7 % WT binding
Mean % WT Binding (human CD33 N20L): 96.3 % WT binding
Mean % WT Binding (human CD33 P19W): 85.9 % WT binding
Mean % WT Binding (human CD33 Q24L): 101 % WT binding
Mean % WT Binding (human CD33 W22Y): 107 % WT binding
Mean % WT Binding (human CD33 V25S): 107 % WT binding
Mean % WT Binding (human CD33 N20W): 71.7 % WT binding
Mean % WT Binding (human CD33 N20P): 96.8 % WT binding
Mean % WT Binding (human CD33 Q24S): 110 % WT binding
Mean % WT Binding (human CD33 F21L): 122 % WT binding
Mean % WT Binding (human CD33 Q24V): 97.9 % WT binding
Mean % WT Binding (human CD33 D18R): 97.4 % WT binding
Mean % WT Binding (human CD33 N20S): 95.1 % WT binding
Mean % WT Binding (human CD33 V25I): 98.9 % WT binding
Mean % WT Binding (human CD33 P19K): 86.2 % WT binding
Mean % WT Binding (human CD33 Q24N): 110 % WT binding
Mean % WT Binding (human CD33 Q24T): 105 % WT binding
Mean % WT Binding (human CD33 F21V): 104 % WT binding
Mean % WT Binding (human CD33 N20Q): 93.2 % WT binding
Mean % WT Binding (human CD33 D18N): 58.7 % WT binding
B2: Refmab #5 (antibody, human IgG1, V domains shown)
VH: QVQLVQSGAEVKKPGASVKVSCKASGYTFTNYDINWVRQAPGQGLEWIGWIYPGDGSTKYNEKFKAKATLTADTSTSTAYMELRSLRSDDTAVYYCASGYEDAMDYWGQGTTVTVSS
VL: DIQMTQSPSSLSASVGDRVTINCKASQDINSYLSWFQQKPGKAPKTLIYRANRLVDGVPSRFSGSGSGQDYTLTISSLQPEDFATYYCLQYDEFPLTFGGGTKVEIK
notes: tested in IgG format
